{"source": "paper PMC5866752", "about": "(Nature chemical biology, 2018)", "molecules": {"B1": {"name": "GST-p6 (GST-tagged HIV p6 protein) (natural protein)", "chain": "LQSRPEPTAPPEESFRSGVETTTPPQKQEPIDKELYPLTSLRSLFGNDPSSQ"}}, "key": {"[1]": {"test_system": "GAG-mediated budding of virus-like particles from HEK293T cells", "assay": "virus-like particle budding assay", "type": "cell-based, human", "settings": "25 μM"}, "p6–UEV interaction": {"target": "T1, p6–UEV interaction (Homo sapiens, UniProt Q99816)", "T1 sequence (Q99816 2-145 limits assumed)": "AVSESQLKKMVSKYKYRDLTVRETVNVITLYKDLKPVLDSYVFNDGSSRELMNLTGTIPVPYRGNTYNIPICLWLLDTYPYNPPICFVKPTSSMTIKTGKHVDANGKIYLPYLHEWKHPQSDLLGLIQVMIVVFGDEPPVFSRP", "assay": "sandwich ELISA monitoring disruption of the p6–UEV PPI", "type": "binding, HIV p6 / human UEV (TSG101)"}, "[2]": {"target": "T2, His6-UEV (ubiquitin E2 variant domain of the human TSG101 protein) (human, UniProt Q99816 2-145)", "T2 sequence": "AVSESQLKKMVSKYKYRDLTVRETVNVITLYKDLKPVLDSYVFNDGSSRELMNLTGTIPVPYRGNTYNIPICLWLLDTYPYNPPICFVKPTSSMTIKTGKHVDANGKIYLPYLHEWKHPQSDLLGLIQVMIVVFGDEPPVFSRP", "assay": "ELISA"}, "[3]": {"target": "T2, His6-UEV (ubiquitin E2 variant domain …)", "assay": "fluorescence polarisation"}}, "note": "Where a SMILES comes first, the peptide text is derived from it. Where no end group is shown, it is not given here."}
{"molecule": "CGRKKRRQRRRPPQ [Tat]", "values": [{"measurement": "effect on viral budding", "setting": "[1]", "result": "no effect"}]}
{"molecule": "CC[C@H](C)[C@@H]1NC(=O)[C@H](Cc2c[nH]c3ccccc23)NC(=O)CNC(=O)[C@H](CO)NC(=O)[C@H](C(C)C)NC(=O)[C@H](CC(N)=O)NC(=O)[C@H](Cc2c[nH]c3ccccc23)NC(=O)[C@H](Cc2ccc(O)cc2)NC1=O", "note": "[CP11] (cyclo(GWIYWNVS))", "values": [{"measurement": "IC50", "setting": "p6–UEV interaction", "result": "30.2 ± 2.2", "unit": "µM"}]}
{"molecule": "B1", "values": [{"measurement": "EC50", "setting": "[2]", "result": 0.948, "unit": "µM"}]}
{"molecule": "GVAGGAACLHFFLSMPPSHVLDIC (FITC on the N-terminus; two non-overlapping lanthionine (thioether) rings)", "note": "[N-terminal FITC-labeled peptide 3]", "values": [{"measurement": "Kd", "setting": "[3]", "result": 5.5, "unit": "µM"}]}
{"molecule": "GGPEPTAPPEE (also: FITC label, position not given here)", "note": "[FITC labelled PTAP peptide (GGPEPTAPPEE)]", "values": [{"measurement": "Kd", "setting": "[3]", "result": 16.6, "unit": "µM"}]}
